The text below walks through data of paper PMC11490872, “Drug-resistant menin variants retain high binding affinity and interactions with MLL1” (The Journal of Biological Chemistry, 2024).

What all share (format): binding
Assay [1] has as its target T1, menin^G331R bound to FLSN-MLL1^4-43 (Homo sapiens, UniProt O00255, G326R).
T1 construct: The gene encoding full-length human menin was cloned into a pET32a expression vector; thioredoxin-His6 (cleaved yes); made in house; host or cells: E. coli BL21(DE3); probe peptide from GenScript
T1 sequence (O00255 1-610 G326R): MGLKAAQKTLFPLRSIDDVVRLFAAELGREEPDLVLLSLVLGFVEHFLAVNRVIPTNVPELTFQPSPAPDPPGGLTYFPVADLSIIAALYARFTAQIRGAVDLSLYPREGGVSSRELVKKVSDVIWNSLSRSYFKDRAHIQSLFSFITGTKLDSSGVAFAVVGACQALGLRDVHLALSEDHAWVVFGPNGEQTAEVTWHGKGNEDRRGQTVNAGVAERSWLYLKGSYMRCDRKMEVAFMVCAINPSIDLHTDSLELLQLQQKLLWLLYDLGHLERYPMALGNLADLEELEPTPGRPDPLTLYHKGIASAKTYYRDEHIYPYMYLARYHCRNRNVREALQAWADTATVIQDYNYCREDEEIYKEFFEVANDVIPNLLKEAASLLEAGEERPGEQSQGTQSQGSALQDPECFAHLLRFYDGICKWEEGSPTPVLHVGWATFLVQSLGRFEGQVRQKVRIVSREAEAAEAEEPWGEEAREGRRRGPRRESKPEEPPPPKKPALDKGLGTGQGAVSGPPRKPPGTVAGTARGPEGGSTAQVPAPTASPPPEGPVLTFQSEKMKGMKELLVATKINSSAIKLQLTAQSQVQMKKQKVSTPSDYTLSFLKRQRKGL
As to the kind of experiment: FP competition, displacement of FLSN-MLL1^4-43 from menin^G331R. As for the experimental part:
(§1) FP competition experiments used FLSN-MLL1^4-43 at 4 nM and menin at 4 nM against varying concentrations of unlabeled MLL1 peptides in FP buffer for IC50 determination. Protein-peptide complexes were incubated for 1 h before unlabeled peptide competitors were added to ensure complete binding. Unlabeled peptide competitors were incubated with the protein-peptide complexes for 3 h before measurement using the PHERAstar microplate reader ([25]). Experiments with Revumenib were run with the same steps and conditions but used 5% DMSO in the final solution. Kd and IC50 values were calculated using GraphPad Prism 10 by plotting mP values measured for each protein/MLL1 peptide or Revumenib as a function of protein/MLL1 peptide (or Revumenib) concentration ([25]). All FP binding and competition experiments were run in triplicate.

Assay [2] has as its target T2, menin^G331D-FLSN-MLL1^4-43 (Homo sapiens, UniProt O00255, G326D).
T2 construct: The gene encoding full-length human menin was cloned into a pET32a expression vector; thioredoxin-His6 (cleaved yes); made in house; host or cells: E. coli BL21(DE3); probe peptide from GenScript
T2 sequence (O00255 1-610 G326D): T1 sequence (O00255 1-610 G326R) with R326D
As to the kind of experiment: FP competition, displacement of FLSN-MLL1^4-43 from menin^G331D. How it is done:
To better understand the mechanism of MLL1 binding with menin mutants, we performed FP competition experiments using FLSN-MLL1^4-43 as a fluorescent probe for competitive displacement by MLL1 peptides ([25]). First, we tested competition with MLL1^160 and found very similar IC50 values for wild-type menin and the three mutants M327I, T349M, and G331R, ranging between 4.1 and 8 nM (Fig. 3, A and B). […] We have hypothesized that the lack of competition with MLL1 for the menin^G331D mutant might result from a much slower dissociation rate of the menin^G331D–MLL1 complex, and to evaluate this we performed time-dependent competition experiments with MLL1^160 and MLL1^46. Standard conditions in the FP assay include 3 h incubations of the menin-FLSN-MLL1^4-43 complex with competitors.
as §1

Assay [3] addresses T3, menin^WT bound to FLSN-MLL1^4-43 (Homo sapiens, UniProt O00255).
T3 construct: Full-length human menin was expressed in BL21(DE3) cells; thioredoxin-His6 (cleaved yes); made in house; host or cells: E. coli BL21(DE3); probe peptide from GenScript
T3 sequence (O00255 1-610): T1 sequence (O00255 1-610 G326R) with R326G
The assay can be described thus: FP competition, displacement of FLSN-MLL1^4-43 from menin^WT. How it is done:
as §1

[4] abbreviates: FP competition with MLL1 fragments, 3 h incubation, N = 3, Fig. 3B, read-out: G331R IC50.
The mark [5] stands for this setting: FP competition with MLL1 fragments, 3 h incubation, N = 3, Fig. 3B, read-out: G331D IC50.
The mark [6] stands for this setting: time-dependent competition, 3 h, Fig. 3D, read-out: 3h IC50.
Setting [7] is: time-dependent competition, 24 h, Fig. 3D, read-out: 24h IC50.
[8] abbreviates: time-dependent competition, 48 h, Fig. 3D, read-out: 48h IC50.
Where [9] appears, read: time-dependent competition, 72 h, Fig. 3D, read-out: 72h IC50.
Where [10] appears, read: FP competition with MLL1 fragments, 3 h incubation, N = 3, Fig. 3B, read-out: WT IC50.

Changes are numbered by the printed parent chain. Like-named read-outs stand apart in the source and are kept apart here.

In the case of `CCN(C(=O)c1cc(F)ccc1Oc1cncnc1N1CC2(CCN(C[C@H]3CC[C@H](NS(=O)(=O)CC)CC3)CC2)C1)C(C)C` [Revumenib, reference compound], the IC50 in assay [1] (FP competition, 5% DMSO, 3 h, N = 3, Fig. 4A, read-out: IC50 (nM), menin variant G331R) was 30 ± 2.5 nM; in assay [3] (FP competition, 5% DMSO, 3 h, N = 3, Fig. 4A, read-out: IC50 (nM), menin variant WT), 5.7 nM. Also, the “reduction of activity against G331R” value in assay [1] (versus wild-type IC50) is on record as 5 fold. Besides, the “activity for the G331D variant” value in assay [2] (FP competition, 5% DMSO) is listed as “no activity”.

As to “MLL1^46: recombinant MLL1 fragment spanning amino acids 1–46, containing MBM1 and MBM2 (MAHSARWRFPARPGTTGGGGGGGRRGLGGAPRQRVPALLLPPGPPV; The printed 'Cys2' is Cys5 in the entry (peptide S4-A5-R6); Trx-His6 tag cl)”, the IC50 was 3.1 ± 0.7 nM in assay [1] (setting [4]); > 200 nM in assay [2] (setting [5]); > 200 nM in assay [2] (setting [6]); 0.87 ± 0.8 nM in assay [2] (setting [7]); 1.1 ± 0.6 nM in assay [2] (setting [8]); 1 ± 0.2 nM in assay [2] (setting [9]). In assay [3] (setting [10]), the IC50 stood at 1.6 ± 0.7 nM.

B1: MLL1^160: N-terminal 160 amino acids of human MLL1, Cys2 mutated to alanine, recombinant (protein)
chain: MAHSARWRFPARPGTTGGGGGGGRRGLGGAPRQRVPALLLPPGPPVGGGGPGAPPSPPAVAAAAAAAGSSGAGVPGGAAAASAASSSSASSSSSSSSSASSGPALLRVGPGFDAALQVSAAIGTNLRRFRAVFGESGGGGGSGEDEQFLGFGSDEEVRVR
modifications: The printed 'Cys2' is the single N-terminal cysteine, Cys5 in the entry (peptide S4-A5-R6); Trx-His6 tag cleaved
On to B1, for which the IC50 in assay [1] (setting [4]) is 8 ± 0.5 nM; in assay [2] (24 to 72 h incubations, read-out: IC50 values, range over time points), 4.7 to 10.9 nM; in assay [2] (setting [5]), > 200 nM; in assay [2] (setting [6]) it was > 200 nM; in assay [2] (setting [7]), 4.73 ± 0.8 nM; in assay [2] (setting [8]), 10.9 ± 6.2 nM. The IC50 in assay [2] (setting [9]) is 7.9 ± 0.5 nM; in assay [3] (setting [10]), 4.1 ± 1.3 nM.

As a reminder, the IC50 is the midpoint of a concentration-inhibition curve.
